These results are taken from publication PMC12785156 (2025).

Broadly, the Kd is the concentration at which binding is half-saturated.

The labels stand for the following.
T1: GST-PUB11-ARM (Arabidopsis thaliana)
T1 chain: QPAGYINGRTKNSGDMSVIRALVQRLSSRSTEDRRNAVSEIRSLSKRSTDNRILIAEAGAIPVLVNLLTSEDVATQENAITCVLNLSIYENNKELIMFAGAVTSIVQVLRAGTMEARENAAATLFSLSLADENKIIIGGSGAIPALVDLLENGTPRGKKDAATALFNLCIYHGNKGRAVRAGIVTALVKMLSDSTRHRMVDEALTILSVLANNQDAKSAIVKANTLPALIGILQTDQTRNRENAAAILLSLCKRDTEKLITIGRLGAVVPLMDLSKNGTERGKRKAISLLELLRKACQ

B1: AtHPPD-F428Y (protein)
chain: MGHQNAAVSENQNHDDGAASSPGFKLVGFSKFVRKNPKSDKFKVKRFHHIEFWCGDATNVARRFSWGLGMRFSAKSDLSTGNMVHASYLLTSGDLRFLFTAPYSPSLSAGEIKPTTTASIPSFDHGSCRSFFSSHGLGVRAVAIEVEDAESAFSISVANGAIPSSPPIVLNEAVTIAEVKLYGDVVLRYVSYKAEDTEKSEFLPGFERVEDASSFPLDYGIRRLDHAVGNVPELGPALTYVAGFTGFHQFAEFTADDVGTAESGLNSAVLASNDEMVLLPINEPVHGTKRKSQIQTYLEHNEGAGLQHLALMSEDIFRTLREMRKRSSIGGFDFMPSPPPTYYQNLKKRVGDVLSDDQIKECEELGILVDRDDQGTLLQIFTKPLGDRPTIFIEIIQRVGCMMKDEEGKAYQSGGCGGFGKGNFSELYKSIEEYEKTLEAKQLVG
modifications: GST carrier omitted. Limits not printed: ARM region taken as everything after the U-box (240-314) to the C-terminus
B2: AtHPPD-F131Y (protein)
chain: MGHQNAAVSENQNHDDGAASSPGFKLVGFSKFVRKNPKSDKFKVKRFHHIEFWCGDATNVARRFSWGLGMRFSAKSDLSTGNMVHASYLLTSGDLRFLFTAPYSPSLSAGEIKPTTTASIPSFDHGSCRSYFSSHGLGVRAVAIEVEDAESAFSISVANGAIPSSPPIVLNEAVTIAEVKLYGDVVLRYVSYKAEDTEKSEFLPGFERVEDASSFPLDYGIRRLDHAVGNVPELGPALTYVAGFTGFHQFAEFTADDVGTAESGLNSAVLASNDEMVLLPINEPVHGTKRKSQIQTYLEHNEGAGLQHLALMSEDIFRTLREMRKRSSIGGFDFMPSPPPTYYQNLKKRVGDVLSDDQIKECEELGILVDRDDQGTLLQIFTKPLGDRPTIFIEIIQRVGCMMKDEEGKAYQSGGCGGFGKGNFSELFKSIEEYEKTLEAKQLVG
modifications: GST carrier omitted. Limits not printed: ARM region taken as everything after the U-box (240-314) to the C-terminus
B3: AtHPPD-F47Y (protein)
chain: MGHQNAAVSENQNHDDGAASSPGFKLVGFSKFVRKNPKSDKFKVKRYHHIEFWCGDATNVARRFSWGLGMRFSAKSDLSTGNMVHASYLLTSGDLRFLFTAPYSPSLSAGEIKPTTTASIPSFDHGSCRSFFSSHGLGVRAVAIEVEDAESAFSISVANGAIPSSPPIVLNEAVTIAEVKLYGDVVLRYVSYKAEDTEKSEFLPGFERVEDASSFPLDYGIRRLDHAVGNVPELGPALTYVAGFTGFHQFAEFTADDVGTAESGLNSAVLASNDEMVLLPINEPVHGTKRKSQIQTYLEHNEGAGLQHLALMSEDIFRTLREMRKRSSIGGFDFMPSPPPTYYQNLKKRVGDVLSDDQIKECEELGILVDRDDQGTLLQIFTKPLGDRPTIFIEIIQRVGCMMKDEEGKAYQSGGCGGFGKGNFSELFKSIEEYEKTLEAKQLVG
modifications: GST carrier omitted. Limits not printed: ARM region taken as everything after the U-box (240-314) to the C-terminus
B4: AtHPPD-F419Y (protein)
chain: MGHQNAAVSENQNHDDGAASSPGFKLVGFSKFVRKNPKSDKFKVKRFHHIEFWCGDATNVARRFSWGLGMRFSAKSDLSTGNMVHASYLLTSGDLRFLFTAPYSPSLSAGEIKPTTTASIPSFDHGSCRSFFSSHGLGVRAVAIEVEDAESAFSISVANGAIPSSPPIVLNEAVTIAEVKLYGDVVLRYVSYKAEDTEKSEFLPGFERVEDASSFPLDYGIRRLDHAVGNVPELGPALTYVAGFTGFHQFAEFTADDVGTAESGLNSAVLASNDEMVLLPINEPVHGTKRKSQIQTYLEHNEGAGLQHLALMSEDIFRTLREMRKRSSIGGFDFMPSPPPTYYQNLKKRVGDVLSDDQIKECEELGILVDRDDQGTLLQIFTKPLGDRPTIFIEIIQRVGCMMKDEEGKAYQSGGCGGYGKGNFSELFKSIEEYEKTLEAKQLVG
modifications: GST carrier omitted. Limits not printed: ARM region taken as everything after the U-box (240-314) to the C-terminus
B5: AtHPPD-F64Y (protein)
chain: MGHQNAAVSENQNHDDGAASSPGFKLVGFSKFVRKNPKSDKFKVKRFHHIEFWCGDATNVARRYSWGLGMRFSAKSDLSTGNMVHASYLLTSGDLRFLFTAPYSPSLSAGEIKPTTTASIPSFDHGSCRSFFSSHGLGVRAVAIEVEDAESAFSISVANGAIPSSPPIVLNEAVTIAEVKLYGDVVLRYVSYKAEDTEKSEFLPGFERVEDASSFPLDYGIRRLDHAVGNVPELGPALTYVAGFTGFHQFAEFTADDVGTAESGLNSAVLASNDEMVLLPINEPVHGTKRKSQIQTYLEHNEGAGLQHLALMSEDIFRTLREMRKRSSIGGFDFMPSPPPTYYQNLKKRVGDVLSDDQIKECEELGILVDRDDQGTLLQIFTKPLGDRPTIFIEIIQRVGCMMKDEEGKAYQSGGCGGFGKGNFSELFKSIEEYEKTLEAKQLVG
modifications: GST carrier omitted. Limits not printed: ARM region taken as everything after the U-box (240-314) to the C-terminus
B6: AtHPPD-F29Y (protein)
chain: MGHQNAAVSENQNHDDGAASSPGFKLVGYSKFVRKNPKSDKFKVKRFHHIEFWCGDATNVARRFSWGLGMRFSAKSDLSTGNMVHASYLLTSGDLRFLFTAPYSPSLSAGEIKPTTTASIPSFDHGSCRSFFSSHGLGVRAVAIEVEDAESAFSISVANGAIPSSPPIVLNEAVTIAEVKLYGDVVLRYVSYKAEDTEKSEFLPGFERVEDASSFPLDYGIRRLDHAVGNVPELGPALTYVAGFTGFHQFAEFTADDVGTAESGLNSAVLASNDEMVLLPINEPVHGTKRKSQIQTYLEHNEGAGLQHLALMSEDIFRTLREMRKRSSIGGFDFMPSPPPTYYQNLKKRVGDVLSDDQIKECEELGILVDRDDQGTLLQIFTKPLGDRPTIFIEIIQRVGCMMKDEEGKAYQSGGCGGFGKGNFSELFKSIEEYEKTLEAKQLVG
modifications: GST carrier omitted. Limits not printed: ARM region taken as everything after the U-box (240-314) to the C-terminus
B7: AtHPPD-F52Y (antibody)
chain: MGHQNAAVSENQNHDDGAASSPGFKLVGFSKFVRKNPKSDKFKVKRFHHIEYWCGDATNVARRFSWGLGMRFSAKSDLSTGNMVHASYLLTSGDLRFLFTAPYSPSLSAGEIKPTTTASIPSFDHGSCRSFFSSHGLGVRAVAIEVEDAESAFSISVANGAIPSSPPIVLNEAVTIAEVKLYGDVVLRYVSYKAEDTEKSEFLPGFERVEDASSFPLDYGIRRLDHAVGNVPELGPALTYVAGFTGFHQFAEFTADDVGTAESGLNSAVLASNDEMVLLPINEPVHGTKRKSQIQTYLEHNEGAGLQHLALMSEDIFRTLREMRKRSSIGGFDFMPSPPPTYYQNLKKRVGDVLSDDQIKECEELGILVDRDDQGTLLQIFTKPLGDRPTIFIEIIQRVGCMMKDEEGKAYQSGGCGGFGKGNFSELFKSIEEYEKTLEAKQLVG
modifications: GST carrier omitted. Limits not printed: ARM region taken as everything after the U-box (240-314) to the C-terminus
B8: AtHPPD-F215Y (protein)
chain: MGHQNAAVSENQNHDDGAASSPGFKLVGFSKFVRKNPKSDKFKVKRFHHIEFWCGDATNVARRFSWGLGMRFSAKSDLSTGNMVHASYLLTSGDLRFLFTAPYSPSLSAGEIKPTTTASIPSFDHGSCRSFFSSHGLGVRAVAIEVEDAESAFSISVANGAIPSSPPIVLNEAVTIAEVKLYGDVVLRYVSYKAEDTEKSEFLPGFERVEDASSYPLDYGIRRLDHAVGNVPELGPALTYVAGFTGFHQFAEFTADDVGTAESGLNSAVLASNDEMVLLPINEPVHGTKRKSQIQTYLEHNEGAGLQHLALMSEDIFRTLREMRKRSSIGGFDFMPSPPPTYYQNLKKRVGDVLSDDQIKECEELGILVDRDDQGTLLQIFTKPLGDRPTIFIEIIQRVGCMMKDEEGKAYQSGGCGGFGKGNFSELFKSIEEYEKTLEAKQLVG
modifications: GST carrier omitted. Limits not printed: ARM region taken as everything after the U-box (240-314) to the C-terminus
B9: AtHPPD-F132Y (protein)
chain: MGHQNAAVSENQNHDDGAASSPGFKLVGFSKFVRKNPKSDKFKVKRFHHIEFWCGDATNVARRFSWGLGMRFSAKSDLSTGNMVHASYLLTSGDLRFLFTAPYSPSLSAGEIKPTTTASIPSFDHGSCRSFYSSHGLGVRAVAIEVEDAESAFSISVANGAIPSSPPIVLNEAVTIAEVKLYGDVVLRYVSYKAEDTEKSEFLPGFERVEDASSFPLDYGIRRLDHAVGNVPELGPALTYVAGFTGFHQFAEFTADDVGTAESGLNSAVLASNDEMVLLPINEPVHGTKRKSQIQTYLEHNEGAGLQHLALMSEDIFRTLREMRKRSSIGGFDFMPSPPPTYYQNLKKRVGDVLSDDQIKECEELGILVDRDDQGTLLQIFTKPLGDRPTIFIEIIQRVGCMMKDEEGKAYQSGGCGGFGKGNFSELFKSIEEYEKTLEAKQLVG
modifications: GST carrier omitted. Limits not printed: ARM region taken as everything after the U-box (240-314) to the C-terminus
B10: AtHPPD-F424Y (protein)
chain: MGHQNAAVSENQNHDDGAASSPGFKLVGFSKFVRKNPKSDKFKVKRFHHIEFWCGDATNVARRFSWGLGMRFSAKSDLSTGNMVHASYLLTSGDLRFLFTAPYSPSLSAGEIKPTTTASIPSFDHGSCRSFFSSHGLGVRAVAIEVEDAESAFSISVANGAIPSSPPIVLNEAVTIAEVKLYGDVVLRYVSYKAEDTEKSEFLPGFERVEDASSFPLDYGIRRLDHAVGNVPELGPALTYVAGFTGFHQFAEFTADDVGTAESGLNSAVLASNDEMVLLPINEPVHGTKRKSQIQTYLEHNEGAGLQHLALMSEDIFRTLREMRKRSSIGGFDFMPSPPPTYYQNLKKRVGDVLSDDQIKECEELGILVDRDDQGTLLQIFTKPLGDRPTIFIEIIQRVGCMMKDEEGKAYQSGGCGGFGKGNYSELFKSIEEYEKTLEAKQLVG
modifications: GST carrier omitted. Limits not printed: ARM region taken as everything after the U-box (240-314) to the C-terminus
B11: AtHPPD-F202Y (protein)
chain: MGHQNAAVSENQNHDDGAASSPGFKLVGFSKFVRKNPKSDKFKVKRFHHIEFWCGDATNVARRFSWGLGMRFSAKSDLSTGNMVHASYLLTSGDLRFLFTAPYSPSLSAGEIKPTTTASIPSFDHGSCRSFFSSHGLGVRAVAIEVEDAESAFSISVANGAIPSSPPIVLNEAVTIAEVKLYGDVVLRYVSYKAEDTEKSEYLPGFERVEDASSFPLDYGIRRLDHAVGNVPELGPALTYVAGFTGFHQFAEFTADDVGTAESGLNSAVLASNDEMVLLPINEPVHGTKRKSQIQTYLEHNEGAGLQHLALMSEDIFRTLREMRKRSSIGGFDFMPSPPPTYYQNLKKRVGDVLSDDQIKECEELGILVDRDDQGTLLQIFTKPLGDRPTIFIEIIQRVGCMMKDEEGKAYQSGGCGGFGKGNFSELFKSIEEYEKTLEAKQLVG
modifications: GST carrier omitted. Limits not printed: ARM region taken as everything after the U-box (240-314) to the C-terminus
B12: His-AtHPPD (Arabidopsis thaliana 4-hydroxyphenylpyruvate dioxygenase) (enzyme)
chain: MGHQNAAVSENQNHDDGAASSPGFKLVGFSKFVRKNPKSDKFKVKRFHHIEFWCGDATNVARRFSWGLGMRFSAKSDLSTGNMVHASYLLTSGDLRFLFTAPYSPSLSAGEIKPTTTASIPSFDHGSCRSFFSSHGLGVRAVAIEVEDAESAFSISVANGAIPSSPPIVLNEAVTIAEVKLYGDVVLRYVSYKAEDTEKSEFLPGFERVEDASSFPLDYGIRRLDHAVGNVPELGPALTYVAGFTGFHQFAEFTADDVGTAESGLNSAVLASNDEMVLLPINEPVHGTKRKSQIQTYLEHNEGAGLQHLALMSEDIFRTLREMRKRSSIGGFDFMPSPPPTYYQNLKKRVGDVLSDDQIKECEELGILVDRDDQGTLLQIFTKPLGDRPTIFIEIIQRVGCMMKDEEGKAYQSGGCGGFGKGNFSELFKSIEEYEKTLEAKQLVG

The first assay deals with T1, GST-PUB11-ARM. Put plainly: MST.
Turning to B1, the Kd came out at 1.3 µM. Still for that read-out and setting: the same measure for B2: 1.26 µM; for B3: 0.23 µM. On the same count and under the same terms, for B4 the value was 46.7 µM; for B5, 0.37 µM. In turn, B6 displayed a Kd of 1.08 µM.

On to B7, for which the affinity, expressed as Kd, was 1.6 µM. B8: the Kd stood at 1.59 µM. On the same count and under the same terms, the same measure for B9: 2.38 µM; for B10: 1.75 µM; for B11: 1.65 µM.

For another assay, the target named is GST. The assay is described as follows: MST.
As to B12, the Kd was greater than 1000 µM.
